These results are taken from patent publication US20130273035.

This series addresses Aβ1-42 (UniProt P05067).

Sequence of Aβ1-42 (P05067 whole entry, looked up, tested part not stated): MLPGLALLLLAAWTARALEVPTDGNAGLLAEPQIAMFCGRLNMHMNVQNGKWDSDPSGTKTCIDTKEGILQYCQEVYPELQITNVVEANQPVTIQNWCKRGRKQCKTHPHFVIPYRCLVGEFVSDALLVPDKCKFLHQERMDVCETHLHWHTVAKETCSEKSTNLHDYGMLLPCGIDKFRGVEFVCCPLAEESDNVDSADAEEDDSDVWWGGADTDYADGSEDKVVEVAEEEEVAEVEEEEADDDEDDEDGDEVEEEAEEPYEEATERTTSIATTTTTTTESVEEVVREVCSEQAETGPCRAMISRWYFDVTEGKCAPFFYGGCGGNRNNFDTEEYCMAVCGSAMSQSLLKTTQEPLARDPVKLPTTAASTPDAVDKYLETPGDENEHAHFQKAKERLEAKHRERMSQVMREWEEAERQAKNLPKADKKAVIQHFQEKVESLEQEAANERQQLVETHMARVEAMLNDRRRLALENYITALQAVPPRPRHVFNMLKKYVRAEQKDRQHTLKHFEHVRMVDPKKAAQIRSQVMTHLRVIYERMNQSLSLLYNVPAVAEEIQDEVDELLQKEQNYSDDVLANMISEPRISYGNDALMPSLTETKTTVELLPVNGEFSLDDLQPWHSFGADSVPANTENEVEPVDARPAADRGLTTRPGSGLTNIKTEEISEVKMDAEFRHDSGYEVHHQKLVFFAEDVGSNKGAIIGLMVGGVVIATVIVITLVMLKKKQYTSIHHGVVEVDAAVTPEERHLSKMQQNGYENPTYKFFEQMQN

For Cathepsin L, the “proteolytic products analyzed with SELDI-TOF mass spectrometry” value is “Incubating Aβ1-42 with CatL resulted in the dose-dependent generation of Aβ6-42 through proteolytic cleavage”.
